Laboratory results taken from patent publication US20040253623, “Nucleic acid binding proteins” (Gendaq Limited, published 2004).

Columns and labels:
[1] = biological target: optimised anti-ras zinc finger peptide (Asn at helix +3 of finger 1) (Artificial Sequence, S21N (finger 1 helix position +3 Ser to Asn; numbering of SEQ 14)); test: apparent Kd; phage binding; details: protein: virion; label: biotin
[2] = biological target: anti-ras lead zinc finger peptide (3 fingers) (Artificial Sequence); test: apparent Kd; phage binding; details: protein: virion; label: biotin
Chain of anti-ras lead zinc finger peptide (3 fingers) (Artificial Sequence) (chain, as listed by the source): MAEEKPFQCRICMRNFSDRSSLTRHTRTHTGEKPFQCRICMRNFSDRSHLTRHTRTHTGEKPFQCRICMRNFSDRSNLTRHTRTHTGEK

Chain of optimised anti-ras zinc finger peptide (Asn at helix +3 of finger 1) (Artificial Sequence, S21N (finger 1 helix position +3 Ser to Asn; numbering of SEQ 14)) (chain, as listed by the source with the stated changes): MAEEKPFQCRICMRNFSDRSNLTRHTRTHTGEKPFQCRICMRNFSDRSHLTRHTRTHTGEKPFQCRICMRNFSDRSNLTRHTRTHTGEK

B1: EJ mutant (G12V) H-ras DNA, codons 8-16 (dsDNA)
DNA 1: GTGGTGGGCGCCGTCGGTGTGGGCAAG
DNA 2: CTTGCCCACACCGACGGCGCCCACCAC
B1 gave a Kd [1] of 3 nM and a Kd [2] of 17 nM.
